Source: paper PMC9949256, “Integrated analyses reveal a hinge glycan regulates coronavirus spike tilting and virus infectivity” (Research Square, 2023)

Target: the molecule itself
Assay: cryo-EM structure; cryoET and subtomogram averaging of spikes in situ on vitrified, chemically unfixed, purified HCoV-NL63 virions; C3 symmetry imposed; crown 6.9 Å, stalk with membrane 11.5 Å; focused classification of RBD and domain 0

B1: human coronavirus NL63 (HCoV-NL63) spike glycoprotein (S) (natural protein)
chain: CNSNANLSMLQLGVPDNSSTIVTGLLPTHWFCANQSTSVYSANGFFYIDVGNHRSAFALHTGYYDANQYYIYVTNEIGLNASVTLKICKFSRNTTFDFLSNASSSFDCIVNLLFTEQLGAPLGITISGETVRLHLYNVTRTFYVPAAYKLTKLSVKCYFNYSCVFSVVNATVTVNVTTHNGRVVNYTVCDDCNGYTDNIFSVQQDGRIPNGFPFNNWFLLTNGSTLVDGVSRLYQPLRLTCLWPVPGLKSSTGFVYFNATGSDVNCNGYQHNSVVDVMRYNLNFSANSLDNLKSGVIVFKTLQYDVLFYCSNSSSGVLDTTIPFGPSSQPYYCFINSTINTTHVSTFVGILPPTVREIVVARTGQFYINGFKYFDLGFIEAVNFNVTTASATDFWTVAFATFVDVLVNVSATNIQNLLYCDSPFEKLQCEHLQFGLQDGFYSANFLDDNVLPETYVALPIYYQHTDINFTATASFGGSCYVCKPHQVNISLNGNTSVCVRTSHFSIRYIYNRVKSGSPGDSSWHIYLKSGTCPFSFSKLNNFQKFKTICFSTVEVPGSCNFPLEATWHYTSYTIVGALYVTWSEGNSITGVPYPVSGIREFSNLVLNNCTKYNIYDYVGTGIIRSSNQSLAGGITYVSNSGNLLGFKNVSTGNIFIVTPCNQPDQVAVYQQSIIGAMTAVNESRYGLQNLLQLPNFYYVSNGGNNCTTAVMTYSNFGICADGSLIPVRPRNSSDNGISAIITANLSIPSNWTTSVQVEYLQITSTPIVVDCATYVCNGNPRCKNLLKQYTSACKTIEDALRLSAHLETNDVSSMLTFDSNAFSLANVTSFGDYNLSSVLPQRNIRSSRIAGRSALEDLLFSKVVTSGLGTVDVDYKSCTKGLSIADLACAQYYNGIMVLPGVADAERMAMYTGSLIGGMVLGGLTSAAAIPFSLALQARLNYVALQTDVLQENQKILAASFNKAINNIVASFSSVNDAITQTAEAIHTVTIALNKIQDVVNQQGSALNHLTSQLRHNFQAISNSIQAIYDRLDSIQADQQVDRLITGRLAALNAFVSQVLNKYTEVRGSRRLAQQKINECVKSQSNRYGFCGNGTHIFSIVNSAPDGLLFLHTVLLPTDYKNVKAWSGICVDGIYGYVLRQPNLVLYSDNGVFRVTSRVMFQPRLPVLSDFVQIYNCNVTFVNISRVELHTVIPDYVDVNKTLQEFAQNLPKYVKPNFDLTPFNLTYLNLSSELKQLEAKTASLFQTTVELQGLIDQINSTYVDLKLLNRFENYIKWPWWVWLIISVVFVVLLSLLVFCCLSTGCCGCCNCLTSSMRGCCDCGSTKLPYYEFEKVHVQ
modifications: N-linked glycans at 39 canonical N-glycosylation sites (36 on the crown; N1242, N1247 and N1277 on the stalk), mostly high-mannose
notes: Spike glycoprotein S of human coronavirus NL63, full-length S in the viral envelope; ectodomain residues 1 to 1297 (crown model 1-1224, stalk 1216-1297); Trimeric spike imaged in situ on intact virions; The atomic model covers only the crown (to residue 1224); The stalk model is predicted (I-TASSER, AlphaFold, CCBuilder) and fitted by MDFF; also called S trimer
stoichiometry N: 3
